Biological target: the molecule itself
Experiment: X-ray fiber diffraction

B1: NCAP central low complexity domain segment (construct LCD, residues 171–263) (domain or fragment)
chain: TFYAEGSRGGSQASSRSSSRSRNSSRNSTPGSSRGTSPARMAGNGGDAALALLLLDRLNQLESKMSGKGQQQQGQTVTKKSAAEASKKPRQKRT
notes: also called central LCD; LCD segment; not shown: 6xHis-SUMO, N-terminal, cleaved
**Q.** Does B1 bind?
**A.** binds

— publication PMC10127185, “Low complexity domains of the nucleocapsid protein of SARS-CoV-2 form amyloid fibrils” (Nature Communications, 2023)
